The subject of the assay is SW620 and PANC-1 cells. Kind of assay: Transwell invasion assay, rHSP90α-induced cancer cell invasion. The format is cell-based, human. The conditions noted are these: conclusion statement. As to the method:
In a 37° C. and 5% CO2 humidified incubator, cancer cells were subjected to serum starvation in 0.5% FBS-containing medium for 16 h, and then added with PBS or 15 μg/ml of rHSP90α in the absence or presence of 10 μg/ml of control IgG or the tested anti-HSP90α antibody. After another 24 h, the treated cells were harvested as aliquots (1×10^5 cells per aliquot) in 0.5% FBS-containing culture medium, and then each aliquot was seeded into a top chamber of Transwell inserts pre-coated with 5-fold diluted Matrigel (BD Biosciences). Cells were allowed 16 h to invade through the Matrigel toward the bottom chambers containing culture medium plus 10% FBS. The filters of the Transwell inserts were then fixed and stained with Giemsa. Invasive cells on the lower side of filters were photographed using the Axiovert S100/AxioCam HR microscope system (Carl Zeiss, Oberkochen, Germany) and further quantified by the Image-Pro Plus software (Media Cybernetics, Inc., Silver Spring, MD, USA).

B1: HH01: humanized anti-HSP90α IgG1 antibody, mutant of Clone-2-chimera; VH SEQ ID NO: 12, VL SEQ ID NO: 17 (antibody, V domains shown)
VH: EVQLVESGGGLVQPGGSLRLSCAASGFTFKTYAMNWVRQAPGQGLEWVARIRSKSRNYATYYADSVKDRFTISRDDSKNQFYLQMNNLRTEDTAVYYCVVGGSGFDYWGQGTTLTVSS
VL: DVVMTQTPLSLPVSLGDQASISCRSSQSIVHSNGNTYLEWYLQKPGQSPQLLIYKVSNRFSGVPDRFSGSGSGTDFTLTISSVEAEDLGVYYCFQGSHVPWTFGGGTKLEIK
modifications: Heavy chain variable region; Light chain variable region
In the case of B1, the “invasive activities of pancreatic adenocarcinoma and colorectal cancer cell lines” value is listed as “potently suppresses”.

These data come from US20250333486A1, “Anti-HSP90 alpha antibody and uses thereof” (NATIONAL HEALTH RESEARCH INSTITUTES, priority 2021, published 2025).
